Results: patent US20210324028A1 (Pfizer, published 2021)
Positions count from the first letter of the chain named. Names may count otherwise.

T1: human IL-2Rβ (human, UniProt P14784 27-240, limits assumed)
T1 construct: also called hIL-2Rβ; IL-2 receptor beta
T1 sequence (looked up): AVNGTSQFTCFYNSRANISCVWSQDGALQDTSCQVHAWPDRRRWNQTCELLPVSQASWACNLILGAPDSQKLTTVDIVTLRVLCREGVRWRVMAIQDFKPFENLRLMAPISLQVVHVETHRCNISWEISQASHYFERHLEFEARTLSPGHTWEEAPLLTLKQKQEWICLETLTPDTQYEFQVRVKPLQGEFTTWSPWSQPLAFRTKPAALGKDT

B1: hIL-15 V49R/D8A (ligand)
chain: NWVNVISALKKIEDLIQSMHIDATLYTESDVHPSCKVTAMKCFLLELQRISLESGDASIHDTVENLIILANNSLSSNGNVTESGCKECEELEEKNIKEFLQSFVHIVQMFINTGGGGSGHHHHHHHHGGGLNDIFEAQKIEWHE
B2: hIL-15 V49R/D8K (ligand)
chain: B1 chain with A8K
B3: hIL-15 V49R/D8N (ligand)
chain: B1 chain with A8N
B4: hIL-15 V49R/D8S (ligand)
chain: B1 chain with A8S
B5: hIL-15 V49R/D61K (ligand)
chain: B1 chain with A8D, D61K
B6: hIL-15 V49R/D61N (ligand)
chain: B1 chain with A8D, D61N
B7: hIL-15 V49R/D61S (ligand)
chain: B1 chain with A8D, D61S
B8: hIL-15 V49R/E64K (ligand)
chain: B1 chain with A8D, E64K
B9: hIL-15 V49R/I68D (ligand)
chain: B1 chain with A8D, I68D
B10: hIL-15 V49R/I68K (ligand)
chain: B1 chain with A8D, I68K
B11: hIL-15 V49R/I68S (ligand)
chain: B1 chain with A8D, I68S
B12: hIL-15 V49R/K10P (ligand)
chain: B1 chain with A8D, K10P
B13: hIL-15 V49R/K11P (ligand)
chain: B1 chain with A8D, K11P
B14: hIL-15 V49R/N4I (ligand)
chain: B1 chain with N4I, A8D
B15: hIL-15 V49R/N4K (ligand)
chain: B1 chain with N4K, A8D
B16: hIL-15 V49R/N4S (ligand)
chain: B1 chain with N4S, A8D
B17: hIL-15 V49R/N65A (ligand)
chain: B1 chain with A8D, N65A
B18: hIL-15 V49R/N65S (ligand)
chain: B1 chain with A8D, N65S
B19: hIL-15 V49R/Q108S (ligand)
chain: B1 chain with A8D, Q108S
B20: hIL-15 V49R/S7A (ligand)
chain: B1 chain with S7A, A8D
B21: hIL-15 V49R/S7D (ligand)
chain: B1 chain with S7D, A8D
B22: hIL-15 V49R/S7E (ligand)
chain: B1 chain with S7E, A8D
B23: hIL-15 V49R/S7G (ligand)
chain: B1 chain with S7G, A8D
B24: hIL-15 V49R/S7H (ligand)
chain: B1 chain with S7H, A8D
B25: hIL-15 V49R/S7K (ligand)
chain: B1 chain with S7K, A8D
B26: hIL-15 V49R/S7N (ligand)
chain: B1 chain with S7N, A8D
B27: hIL-15 V49R/S7Q (ligand)
chain: B1 chain with S7Q, A8D
B28: hIL-15 V49R/S7R (ligand)
chain: B1 chain with S7R, A8D
B29: hIL-15 V49R/S7T (ligand)
chain: B1 chain with S7T, A8D
B30: hIL-15 V49R/S29A (ligand)
chain: B1 chain with A8D, S29A
B31: hIL-15 V49R/S29D (ligand)
chain: B1 chain with A8D, S29D
B32: hIL-15 V49R/S29K (ligand)
chain: B1 chain with A8D, S29K
B33: hIL-15 V49R/S29N (ligand)
chain: B1 chain with A8D, S29N
B34: hIL-15 V49R/V31A (ligand)
chain: B1 chain with A8D, V31A
B35: hIL-15 V49R/V31D (ligand)
chain: B1 chain with A8D, V31D
B36: hIL-15 V49R/V31S (ligand)
chain: B1 chain with A8D, V31S

molecular target: T1, human IL-2Rβ; experiment: SPR 37C

B1: no binding.
B2: no binding.
B3: no binding.
B4: no binding.
B5: no binding.
B6: no binding.
B7: no binding.
B8: no binding.
B9: no binding.
B10: no binding.
B11: no binding.
B12: no binding.
B13: no binding.
B14: no binding.
B15: no binding.
B16: no binding.
B17: no binding.
B18: no binding.

molecular target: T2, human IL-15Rα (human, UniProt Q13261 31-205, limits assumed); experiment: SPR, steady state
T2 construct: also called hIL-15Rα; IL-15 receptor alpha
T2 sequence (Q13261 31-205 limits assumed): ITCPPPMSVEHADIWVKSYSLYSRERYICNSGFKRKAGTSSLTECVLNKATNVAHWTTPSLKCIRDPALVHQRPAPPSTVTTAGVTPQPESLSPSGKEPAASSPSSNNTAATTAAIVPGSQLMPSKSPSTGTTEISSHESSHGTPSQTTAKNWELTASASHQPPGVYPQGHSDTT

B1 and B2 are within 1.5-fold of each other in Kd: 102 nM for the first, 101 nM for the second.

B3 and B4 are within 1.5-fold of each other in Kd: 119 nM for the first, 124 nM for the second.

B5 and B6 are within 1.5-fold of each other in Kd: 116 nM for the first, 121 nM for the second.

First: B7
Second: B8
The Kd of the first is 1.6-fold lower: 102 nM for the first, 164 nM for the second. The first binds more tightly here.

B9 and B10 are within 1.5-fold of each other in Kd: 106 nM for the first, 94.2 nM for the second.

B11 and B15 are within 1.5-fold of each other in Kd: 104 nM for the first, 73.1 nM for the second.

First: B16
Second: B17
The Kd of the first is 2.1-fold lower: 94.7 nM for the first, 202 nM for the second.

B18 and B19 are within 1.5-fold of each other in Kd: 158 nM for the first, 144 nM for the second.

B20 and B21 are within 1.5-fold of each other in Kd: 84 nM for the first, 121 nM for the second.

Compared with B22, B23 is 1.7-fold higher in Kd: 87.6 nM for the first, 147 nM for the second.

B24 and B25 are within 1.5-fold of each other in Kd: 75.6 nM for the first, 103 nM for the second.

B26 and B27 are within 1.5-fold of each other in Kd: 93.2 nM for the first, 88.1 nM for the second.

B28 and B29 are within 1.5-fold of each other in Kd: 77 nM for the first, 93.9 nM for the second.

B30 and B31 are within 1.5-fold of each other in Kd: 154 nM for the first, 121 nM for the second.

Going from B32 to B33, the Kd falls from 261 nM to 154 nM (1.7-fold). The second binds more tightly here.

Compared with B34, B35 is higher in Kd: 129 nM for the first, > 500 nM for the second.

B36 gave a Kd of 265 nM.

molecular target: T1, human IL-2Rβ; experiment: SPR, steady state

B19 and B20 are within 1.5-fold of each other in Kd: 290 nM for the first, 220 nM for the second.

B21 and B22 cannot be ordered by Kd: > 500 nM for the first, > 500 nM for the second.

Compared with B23, B24 is lower in Kd: > 500 nM for the first, 354 nM for the second.

B25 and B26 cannot be ordered by Kd: > 500 nM for the first, > 500 nM for the second.

Going from B27 to B28, the Kd rises from 215 nM to > 500 nM. The first binds more tightly here.

Compared with B29, B30 is lower in Kd: > 500 nM for the first, 274 nM for the second. The second binds more tightly here.

B31 and B32 are within 1.5-fold of each other in Kd: 238 nM for the first, 248 nM for the second.

B33 and B34 are within 1.5-fold of each other in Kd: 322 nM for the first, 269 nM for the second.

B35 and B36 cannot be ordered by Kd: > 500 nM for the first, > 500 nM for the second.
